Assay results published in patent US20240287172A1 (SCIRHOM, published 2024).

Columns and labels:
hiR2-FL-G546A-T7 = target: T1, hiR2-FL-G546A-T7 (human, UniProt Q6PJF5 1-856); experiment: FACS on MEF-DKO cells expressing the variant, 3 µg/ml antibody
T1 sequence: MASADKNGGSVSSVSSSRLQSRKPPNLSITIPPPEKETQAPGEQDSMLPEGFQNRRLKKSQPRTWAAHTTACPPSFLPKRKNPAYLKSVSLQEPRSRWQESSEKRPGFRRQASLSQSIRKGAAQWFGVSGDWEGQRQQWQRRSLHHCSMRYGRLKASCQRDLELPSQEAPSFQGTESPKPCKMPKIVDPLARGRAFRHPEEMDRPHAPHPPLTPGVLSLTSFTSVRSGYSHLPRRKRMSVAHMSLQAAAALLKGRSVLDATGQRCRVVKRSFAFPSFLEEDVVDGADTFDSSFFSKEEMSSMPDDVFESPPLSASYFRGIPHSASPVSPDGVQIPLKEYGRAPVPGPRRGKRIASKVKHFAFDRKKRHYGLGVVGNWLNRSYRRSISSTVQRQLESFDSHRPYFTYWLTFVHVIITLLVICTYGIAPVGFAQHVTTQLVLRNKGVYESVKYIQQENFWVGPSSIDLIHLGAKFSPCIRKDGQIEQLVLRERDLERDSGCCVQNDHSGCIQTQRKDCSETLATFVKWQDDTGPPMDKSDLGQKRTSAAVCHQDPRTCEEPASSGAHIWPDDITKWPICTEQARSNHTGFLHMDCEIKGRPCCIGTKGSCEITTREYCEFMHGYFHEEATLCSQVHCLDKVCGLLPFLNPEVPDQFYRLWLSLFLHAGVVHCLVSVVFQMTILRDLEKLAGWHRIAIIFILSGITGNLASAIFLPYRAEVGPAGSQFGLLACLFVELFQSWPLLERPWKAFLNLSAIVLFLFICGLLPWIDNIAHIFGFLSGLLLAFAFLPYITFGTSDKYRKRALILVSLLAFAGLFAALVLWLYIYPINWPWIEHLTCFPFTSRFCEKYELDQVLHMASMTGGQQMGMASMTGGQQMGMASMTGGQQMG
How it was run: (§1)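 Read-out is PE fluorescence by flow cytometry after two-step staining: antibody at 3 μg/ml for 1 hour on ice, then PE-labelled goat anti-mouse IgG F(ab′)2 (1:100) for 1 hour on ice.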

hiR2-FL-R554A-T7 = target: T2, hiR2-FL-R554A-T7 (human, UniProt Q6PJF5 1-856); experiment: as above
T2 sequence: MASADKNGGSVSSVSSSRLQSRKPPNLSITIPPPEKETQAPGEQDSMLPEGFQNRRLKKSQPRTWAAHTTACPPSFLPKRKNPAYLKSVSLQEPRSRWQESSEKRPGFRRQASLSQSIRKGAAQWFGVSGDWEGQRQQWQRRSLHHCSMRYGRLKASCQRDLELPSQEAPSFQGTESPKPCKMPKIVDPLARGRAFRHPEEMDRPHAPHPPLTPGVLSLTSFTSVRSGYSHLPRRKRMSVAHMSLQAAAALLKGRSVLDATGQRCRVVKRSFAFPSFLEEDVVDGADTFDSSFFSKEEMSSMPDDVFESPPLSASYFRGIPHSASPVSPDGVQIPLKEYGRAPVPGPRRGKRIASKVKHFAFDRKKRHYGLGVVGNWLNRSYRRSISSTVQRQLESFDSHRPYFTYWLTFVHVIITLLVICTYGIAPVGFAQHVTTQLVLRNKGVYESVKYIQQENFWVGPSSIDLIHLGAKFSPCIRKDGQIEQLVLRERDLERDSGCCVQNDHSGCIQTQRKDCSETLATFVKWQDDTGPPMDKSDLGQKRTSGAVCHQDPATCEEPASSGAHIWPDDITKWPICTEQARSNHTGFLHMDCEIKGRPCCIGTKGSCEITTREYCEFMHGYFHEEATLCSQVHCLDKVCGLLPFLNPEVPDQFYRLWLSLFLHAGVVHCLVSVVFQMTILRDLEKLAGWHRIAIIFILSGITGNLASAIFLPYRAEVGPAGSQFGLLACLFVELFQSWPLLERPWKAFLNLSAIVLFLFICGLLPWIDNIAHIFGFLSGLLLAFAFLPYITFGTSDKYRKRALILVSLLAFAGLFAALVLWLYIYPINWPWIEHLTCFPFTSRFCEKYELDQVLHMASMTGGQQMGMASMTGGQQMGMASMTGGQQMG
How it was run: as §1

B1: antibody 3 (antibody, V domains shown)
VH: QVTLKESGPGILQPSQTLSLTCSFSGFSLTTFAMGIGWVRQPSGKGLEWLAHIWWDGEKYNNPVLKSRLTISKDTSKNQVFLRIANVDTPDTATYYCARISSIYYIIDNWGQGTSVTVSS
VL: DIVLTQSPATLSVTPGHSVSLSCRASQSISNNLHWYQKKSHESPRLLIKYVSQSISGIPSRFSGSGSGTDFTLSINSVETEDFGMYFCQQSYNWPLTFGAGTKLELK
notes: mouse IgG, kappa light chain; also called clone #3; purified antibody 3
Q: For B1, which “loss of binding vs wild type” value (hiR2-FL-G546A-T7) is on record?
A: ≥ 30%

B2: antibody 5 (antibody, V domains shown)
VH: QVTLKESGPGILQPSQTLSLTCSFSGFSLSTFGMGVGWIRQPSGKGLEWLAHIWWDDEKYYNSALKSRLTISKATSKNQAFLKIANVDTADTATYYCARISNYGSNYWYFNVWGTGTTVTVSS
VL: QVVLTQSPALMSASPGEKVTMTCSAGSSVSCMYWYQQKPGSSPRVLIYDTSNLASGVPARFTGSGSGTSYSLTISRMEAEDAASYYCQQWNSYPLTFGAGTKLELK
notes: mouse IgG, kappa light chain; also called clone #5; purified antibody 5
Q: B2 was tested. Which “loss of binding vs wild type” value (hiR2-FL-R554A-T7) did it give?
A: ≥ 60%

Q: And the “loss of binding vs wild type” value (hiR2-FL-G546A-T7)?
A: ≥ 30%

B3: antibody 44 (antibody, V domains shown)
VH: QVTLKESGPGILQPSQTLSLTCSFSGFSLSTFGMGVGWIRQPSEKGLEWLAHIWWDDDKYYNPALKSRLTISKDTSKNQIFLKITNVDTAETATYYCSRIGNYGSNYWYFDVWGTGTTVTVSS
VL: QIVLTQSPAVMSASPGEKVTMTCTASSSVYYMYWYQQTPGSSPRLLIYDTSNLASGVPVRFSGSGSGTSYSLTISRMEAEDAATYYCQQWNTYPLTFGAGTKLELK
notes: mouse IgG, kappa light chain; also called clone #44; purified antibody 44
Q: Which results are given for B3?
A: loss of binding vs wild type (hiR2-FL-R554A-T7): ≥ 60%; loss of binding vs wild type (hiR2-FL-G546A-T7): ≥ 30%

B4: antibody 43 (antibody, V domains shown)
VH: QVALKESGPGILQPSQTLSLTCSFSGFSLSTFGMGVGWIRQSSGKGLEWLANIWWDDDKYYNPALKSRLTISKDASKNQAFLKIANVDTADTATYYCARIGNYGSNYWYFDVWGTGTTVTVSS
VL: QIVLTQSPAIMSASPGERVTMTCSANSRISYMYWYQQKPGSSPRLLIYDTSNLASGVPVRFSGSGSGTSYSLTISRMEAEDAATYNCQQWSSYPLTFGAGTKLELK
notes: mouse IgG, kappa light chain; also called clone #43; purified antibody 43
Q: B4 was tested. Which “loss of binding vs wild type” value (hiR2-FL-R554A-T7) did it give?
A: ≥ 30%

Q: What about the “loss of binding vs wild type” value (hiR2-FL-G546A-T7) of the same binder?
A: ≥ 30%

B5: antibody 22 (antibody, V domains shown)
VH: QVTLKESGPGILQPSQTLSLTCSFSGFSLSTFGMGVGWIRQPSGKGLEWLAHIWWDDEKYYNSALKSRLTISKATSKNQVFLKIANVDTADTATYYCARISNYGSNYWYFNVWGTGTTVTVSS
VL: QVVLTQSPALMSASPGEKVTMTCSAGSSVSYMYWYQQKPGSSPRVLIYDTSNLASGVPARFTGSGSGTSYSLTISRMEAEDAATYYCQQWNSYPLTFGAGTKLELK
notes: mouse IgG, kappa light chain; also called clone #22; purified antibody 22
Q: Which “loss of binding vs wild type” value (hiR2-FL-R554A-T7) does the source give for B5 here?
A: ≥ 30%

B6: antibody 48 (antibody, V domains shown)
VH: QVQLQQSGTELVRPGTSVKVSCKASGYAFTNYLIEWVKQRPGQGLEWIGVINPGSGFTKYNEKFKGKATLTADKSSSTVYMHLSSLTSEDSAVYFCARGLYRAMDYWGQGTSVTVSS
VL: DIQMTQSPASQSASLGESVTITCLASQTIATWLAWYQQKPGKSPQLLIYGATTLADGVPSRFSGGGSGTKFSFKISSLQAEDFVSYYCQQLYSTPYTFGGGTKLEIK
notes: mouse IgG, kappa light chain; also called clone #48; purified antibody 48
Q: Which “loss of binding vs wild type” value (hiR2-FL-R554A-T7) does the source give for B6 here?
A: ≥ 30%

B7: antibody 34 (antibody, V domains shown)
VH: QVTLKESGPGILQPSQTLSLTCSFSGFSLSTFSLGVGWIRQSSGKGLEWLAHIWWDDEKYYNPALKSRLTISKDTSKNQVFLKIANVDAADTATYYCARAYYSKSYYALDYWGQGTSVTVSS
VL: DIQMTQSPSSLSASLGERVSLTCRASQEISGYLSWLQQKPDGTIKRLIYAASTLDSGVPKRFSGSRSGSDYSLAISSLESEDFADYYCLQYANFPFTFGSGTKLEIK
notes: mouse IgG, kappa light chain; also called clone #34; purified antibody 34
Q: B7 was tested. Which “loss of binding vs wild type” value (hiR2-FL-G546A-T7) did it give?
A: ≥ 30%
